From patent publication US10202593B2, “Evolved sortases and uses thereof” (President and Fellows of Harvard College, priority 2013, dated 2019)
Where two headings read alike, the source gives them in different places.

How the values were obtained:
Format in all cases: biochemical
[1] = test system: LAETG (Abz-LAETGK(Dnp)-CONH2); assay: In vitro sortase kinetics HPLC assay, LAETG substrate; conditions: for increase in kcat/Km for LAETG as compared to LPETG / increased affinity (KM) for the LAETG substrate as compared to the LPETG substrate: FIG. 1; for preference for LAETG over LPETG / preference for LPETG over LAETG: ratio of kcat/KM; for Specificity (relative catalytic efficiency, fold): ratio of kcat/KM between 2A (LAETG) and wt (LPETG); for specificity (relative cat. Efficiency, fold): ratio of kcat/Km between 2A (LAETG) and wt (LPETG) substrates, favoured over disfavoured; for kcat, 1 mM LxExG (Hz) / kHydrolysis (Hz): GGG varied; for kHydrolysis (Hz): 1 mM
Description: (§1) See below for details on sortase expression and purification, and on the synthesis of Abz-LPETGK(Dnp)-CONH2 (SEQ ID NO: 19). […] Reactions were initiated with the addition of enzyme and incubated at 22.5° C. for 3 to 20 minutes before quenching with 0.5 volumes of 1 M HCl. Five to ten nmol of peptide from the quenched reactions were injected onto an analytical reverse-phase Eclipse XDB-C18 HPLC column (4.6×150 mm, 5 μm, Agilent Technologies) and chromatographed using a gradient of 10 to 65% acetonitrile with 0.1% TFA in 0.1% aqueous TFA over 13 minutes. Retention times under these conditions for the Abz-LPETGK(Dnp)-CONH2 (SEQ ID NO: 19) substrate, the released GKDnp peptide, and the Abz-LPETGGG-COOH (SEQ ID NO: 20) product were 12.8, 10.4, and 9.1 min, respectively. To calculate the percent conversion, the ratio of the integrated areas of the Abz-LPETGGG-COOH (SEQ ID NO: 20) and Abz-LPETGK(Dnp)-CONH2 (SEQ ID NO: 19) peptide Abs220 peaks was compared to a standard curve generated by mixing the product and starting peptide in known ratios. To determine […] and Km, reaction rates were fit to the Michaelis-Menten equation using OriginPro 7.0 software. All kinetics values reported represent the average of at least three measurements. Percent conversion was also calculated by using the ratio of the integrated areas of the GK(Dnp)-CONH2 and Abz-LPETGK(Dnp)-CONH2 peptide Abs355 peaks were compared directly (Example 5). To determine kcat and Km, LPETG, reaction rates were fit to the Michaelis-Menten equation using Microsoft Excel using the Solver add-in. To determine Km,GGG and KH, reaction rates were fit to the modified Michaelis-Menten, for which KH is as defined when KH<<Km,GGG.
(§2) Assays to determine eSrtA, eSrtA(2A-9) and eSrtA(4S-9) specificity were performed by preparing 10 μM stocks of Abz-LXEXGK(Dnp) (SEQ ID NO: 75) peptides in 300 mM Tris pH 7.5, 150 mM NaCl, 5 mM CaCl2, 5% v/v DMSO, and 100 mM Gly-Gly-Gly-COOH (GGG). Reactions were performed by adding eSrtA(2A-9) to a final concentration of 450 nM, eSrtA(4S-9) to a final concentration of 115 nM or eSrtA to a final concentration of 47.5 nM and a final volume of 100 μL, then incubating at 22.5° C. for 15 minutes. Reactions were quenched by the addition of 0.2 volumes of 5 M HCl, then were injected onto an analytical reverse-phase Eclipse XDB-C18 HPLC column (4.6×150 mm, 5 μm, Agilent Technologies) and chromatographed using a gradient of 10 to 65% acetonitrile with 0.1% TFA in 0.1% aqueous TFA over 13 minutes. Retention times under these conditions for the Abz-LPETGK(Dnp)-CONH2 (SEQ ID NO: 19) substrate, the released GKDnp peptide, and the Abz-LPETGGG-COOH (SEQ ID NO: 20) product were 12.8, 10.4, and 9.1 min, respectively, while the remaining Abz-LXEXGK(Dnp)-CONH2 (SEQ ID NO: 74) substrates varied in retention time between 9 and 13 minutes. To calculate the percent conversion, the ratio of the integrated areas of the GK(Dnp)-CONH2 and Abz-LPETGK(Dnp)-CONH2 (SEQ ID NO: 19) peptide Abs355 peaks were compared directly. Subsequent determination of kcat/Km and KH were performed as described for in vitro SrtA characterization.
(§3) In each case, rate constants were determined by measuring enzyme velocity at eight different substrate concentrations by HPLC assay, then fit using nonlinear regression to the Michaelis-Menten equation, yielding kcat and Km. KH was calculated by measuring enzyme velocity at 1 mM target substrate and eight different GGG concentrations by HPLC assay, then fitting the resulting curves using nonlinear regression to the modified Michaelis-Menten equation.

[2] = test system: LPETG (Abz-LPETGK(Dnp)-CONH2); assay: In vitro sortase kinetics HPLC assay, LPETG substrate
Description: as §1, §2, §3

[3] = test system: LPESG (Abz-LPESGK(Dnp)-CONH2); assay: In vitro sortase kinetics HPLC assay, LPESG substrate; conditions: reversion of V182
Description: as §1, §2, §3

[4] = Example 5 variants, substrate 2A (LAETG)
[5] = Example 5 variants, substrate 2A (LAETG), read-out: Avg KM
[6] = substrate 2A (LAETG), read-out: Km, LxExG
[7] = Example 5 variants, substrate wt (LPETG)
[8] = Example 5 variants, substrate wt (LPETG), read-out: Avg KM
[9] = substrate wt (LPETG), read-out: Km, LxExG
[10] = 1 mM 2A (LAETG) substrate, read-out: Km, GGG

B1: eSrtA(2A-4): 5mut + A104H K162R V168I I182V (protein)
chain: QAKPQIPKDKSKVAGYIEIPDADIKEPVYPGPATREQLNRGVSFHEENESLDDQNISIAGHTFIDRPNYQFTNLKAAKKGSMVYFKVGNETRKYKMTSIRNVRPTAVEILDEQKGKDKQLTLVTCDDYNEETGVWETRKIFVATEVK
- Avg kcat (Hz) [1, 4]: 1.988 Hz
- Km [1, 5]: 3720 µM
- increase in kcat/Km for LAETG as compared to LPETG [1]: ~40 fold
- preference for LAETG over LPETG [1]: 73 fold
- Specificity (relative catalytic efficiency, fold) [1]: 55.11 fold
- specificity (relative cat. Efficiency, fold) [1]: 73.05 fold
- kcat, 10 mM GGG (Hz) ([1]; substrate 2A (LAETG)): 1.901 Hz
- Km [1, 6]: 3250 µM
- Avg kcat (Hz) [2, 7]: 0.0501 Hz
- Km [2, 8]: 5180 µM
- kcat, 10 mM GGG (Hz) ([2]; substrate wt (LPETG)): 0.09356 Hz
- Km [2, 9]: 11700 µM

B2: eSrtA(2A-3): round 3 LAETG clone: eSrtA + K84R F122S D124G K134R K145E K162R V168I K177R I182F (protein)
chain: QAKPQIPKDKSKVAGYIEIPDADIREPVYPGPATREQLNRGVSFAEENESLDDQNISIAGHTSIGRPNYQFTNLRAAKKGSMVYFEVGNETRKYKMTSIRNVRPTAVEILDEQKGKDRQLTLFTCDDYNEETGVWETRKIFVATEVK
- Avg kcat (Hz) [1, 4]: 1.117 Hz
- Km [1, 5]: 1620 µM
- preference for LPETG over LAETG [1]: 1.4 fold
- Specificity (relative catalytic efficiency, fold) [1]: 1.436 fold
- reduced catalytic efficiency ([1]; round 3 clone, LAETG target): > 10 fold
- Avg kcat (Hz) [2, 7]: 2.653 Hz
- Km [2, 8]: 2100 µM

B3: 2A.6B: 5mut + R99K A104H K138V D160K* K162R I182V (protein)
chain: QAKPQIPKDKSKVAGYIEIPDADIKEPVYPGPATREQLNKGVSFHEENESLDDQNISIAGHTFIDRPNYQFTNLKAAKVGSMVYFKVGNETRKYKMTSIRKVRPTAVEVLDEQKGKDKQLTLVTCDDYNEETGVWETRKIFVATEVK
- Khydrolysis ([1]; 1 mM 2A (LAETG) substrate): 12.49 µM
- kcat, 1 mM LxExG (Hz) ([1]; 1 mM 2A (LAETG) substrate): 0.5359 Hz
- Km [1, 10]: 642 µM
- kL/KL/KH ([1]; substrate 2A (LAETG)): 1.81E+08
- kHydrolysis (Hz) ([1]; substrate 2A (LAETG)): 0.01048 Hz
- kcat, 10 mM GGG (Hz) ([1]; substrate 2A (LAETG)): 0.6977 Hz
- Km [1, 6]: 310 µM

B4: 2A.6C: 5mut + A104H K138P K152I D160K* K162R I182V (protein)
chain: QAKPQIPKDKSKVAGYIEIPDADIKEPVYPGPATREQLNRGVSFHEENESLDDQNISIAGHTFIDRPNYQFTNLKAAKPGSMVYFKVGNETRIYKMTSIRKVRPTAVEVLDEQKGKDKQLTLVTCDDYNEETGVWETRKIFVATEVK
- Khydrolysis ([1]; 1 mM 2A (LAETG) substrate): 12.49 µM
- kcat, 1 mM LxExG (Hz) ([1]; 1 mM 2A (LAETG) substrate): 0.5359 Hz
- Km [1, 10]: 642 µM
- increased affinity (KM) for the LAETG substrate as compared to the LPETG substrate [1]: ~61 fold
- specificity (relative cat. Efficiency, fold) [1]: 61.61 fold
- kL/KL/KH ([1]; substrate 2A (LAETG)): 1.91E+08
- kHydrolysis (Hz) ([1]; substrate 2A (LAETG)): 0.01048 Hz
- kcat, 10 mM GGG (Hz) ([1]; substrate 2A (LAETG)): 0.8129 Hz
- Km [1, 6]: 343 µM
- kcat, 10 mM GGG (Hz) ([2]; substrate wt (LPETG)): 0.07676 Hz
- Km [2, 9]: 1980 µM

B5: eSrtA(2A-5): 5mut + R99H A104H K138I K162R I182V (protein)
chain: QAKPQIPKDKSKVAGYIEIPDADIKEPVYPGPATREQLNHGVSFHEENESLDDQNISIAGHTFIDRPNYQFTNLKAAKIGSMVYFKVGNETRKYKMTSIRNVRPTAVEVLDEQKGKDKQLTLVTCDDYNEETGVWETRKIFVATEVK
- Khydrolysis ([1]; 1 mM 2A (LAETG) substrate): 615.9 µM
- kcat, 1 mM LxExG (Hz) ([1]; 1 mM 2A (LAETG) substrate): 1.493 Hz
- Km [1, 10]: 2810 µM
- increase in kcat/Km for LAETG as compared to LPETG [1]: ~125 fold
- increased affinity (KM) for the LAETG substrate as compared to the LPETG substrate [1]: ~116 fold
- KH ([1]; GGG concentration at which hydrolysis and transpeptidation rates are equal, unit not given): 731±235
- specificity (relative cat. Efficiency, fold) [1]: 115.7 fold
- kL/KL/KH ([1]; substrate 2A (LAETG)): 5.29E+06
- kHydrolysis (Hz) ([1]; substrate 2A (LAETG)): 0.324 Hz
- kcat, 10 mM GGG (Hz) ([1]; substrate 2A (LAETG)): 1.41 Hz
- Km [1, 6]: 433 µM
- kcat, 10 mM GGG (Hz) ([2]; substrate wt (LPETG)): 0.1375 Hz
- Km [2, 9]: 4900 µM

B6: eSrtA(2A-9) H104A (protein)
chain: QAKPQIPKDKSKVAGYIEIPDADIKEPVYPGPATREQLNRGVCFADENESLDDQNISIAGHTFIDRPNYQFTNLKAAKPGSMVYFKVGNETRIYKMTSIRKVHPNAVEVLDEQEGKDKQLTLVTCDDYNEETGVWESRKIFVATEVK
- preference for LPETG over LAETG [1]: 60 fold

B7: eSrtA(2A-9) V182I (protein)
chain: QAKPQIPKDKSKVAGYIEIPDADIKEPVYPGPATREQLNRGVCFHDENESLDDQNISIAGHTFIDRPNYQFTNLKAAKPGSMVYFKVGNETRIYKMTSIRKVHPNAVEVLDEQEGKDKQLTLITCDDYNEETGVWESRKIFVATEVK
- preference for LAETG over LPETG [1]: 85 fold
- activity level for LAETG ([1]; reversion of V182): lowers the activity level for LAETG

B8: eSrtA(4S-9) V182I (protein)
chain: QAKPQIPKDKSKVAGYIEIPDADIKEPVYPGPATREQLDRGVCFVEENESLDDQNISITGHTAIDRPNYQFTNLRAAKKGSMVYLKVGNETRKYKMTSIRNVKPTAVEVLDEQKGKDKQLTLITCDDYNFETGVWETRKIFVATEVK
- selectivity and overall activity [3]: preserved selectivity but decreased overall activity

B9: SrtA: wild-type Staphylococcus aureus sortase A (SEQ ID NO: 1) (protein)
chain: MKKWTNRLMTIAGVVLILVAAYLFAKPHIDNYLHDKDKDEKIEQYDKNVKEQASKDKKQQAKPQIPKDKSKVAGYIEIPDADIKEPVYPGPATPEQLNRGVSFAEENESLDDQNISIAGHTFIDRPNYQFTNLKAAKKGSMVYFKVGNETRKYKMTSIRDVKPTDVEVLDEQKGKDKQLTLITCDDYNEKTGVWEKRKIFVATEVK
modifications: S. aureus
- KH ([2]; 1 mM LPETG): 14.3 ± 0.8 µM
- KN ([2]; 1 mM LPETG, eight GGG concentrations): 14.3 ± 0.8 µM
- Km ([2]; 1 mM LPETG, read-out: Km,GGG): 211 ± 8 µM
- Khydrolysis ([2]; 1 mM wt (LPETG) substrate): 28.38 µM
- kcat, 1 mM LxExG (Hz) ([2]; 1 mM wt (LPETG) substrate, GGG varied): 0.1731 Hz
- Km ([2]; 1 mM wt (LPETG) substrate, read-out: Km, GGG): 291 µM
- KH,LPETG ([2]; LPETG substrate): 14.3 ± 0.8 µM
- Kcat (Hz) ([2]; Sub LPETG, 100 mM GGG): 1.5 ± 0.2 Hz
- Km ([2]; Sub LPETG, 100 mM GGG, read-out: Km): 7600 ± 500 µM
- Rel. Activity ([2]; Sub LPETG, kcat/Km of the enzyme's preferred substrate relative to kcat/Km on this substrate): 1
- Kcat (Hz) ([2]; Table 2, Sub LPETG): 1.5 ± 0.2 Hz
- Km ([2]; Table 2, Sub LPETG, read-out: Km): 7600 ± 500 µM
- kL/KL/KH ([2]; substrate wt (LPETG)): 8.30E+06
- kHydrolysis (Hz) ([2]; substrate wt (LPETG), 1 mM, GGG varied): 0.01657 Hz
- kcat, 10 mM GGG (Hz) ([2]; substrate wt (LPETG)): 1.221 Hz
- Km [2, 9]: 5180 µM
